Laboratory results from patent publication US20250108138A1, “TH[…] CONJUGATES” (MERCK PATENT GMBH, priority 2022, published 2025).

What was measured:
[1] = n-octanol/PBS distribution coefficient (log D); assay type: physicochemical; settings: n-octanol/PBS pH 7.4, mean±SD
Procedure: Example 5: PBS/n-Octanol Distribution Coefficient (Log D Values) The n-octanol/PBS distribution coefficients (log D values) were determined for each folate radioconjugate of the disclosure and a reference compound in order to assess their hydrophilic/hydrophobic properties. The log D values of the folate radioconjugates of the disclosure (50 MBq/nmol) were determined as previously reported, after dilution in PBS pH 7.4 to obtain an activity concentration of 10 MBq/500 μL. A sample of each radiofolate (ca. 0.5 MBq, 25 μL, 0.01 nmol) was added to a mixture of 1475 μL PBS pH 7.4 and 1500 μL n-octanol. The vials were vortexed vigorously for 1 min followed by centrifugation for 6 min at 2500 rpm for phase separation. An aliquot was taken from each phase and measured in a gamma-counter (Perkin Elmer, Wallac Wizard 1480). The distribution coefficients were calculated as the logarithm of the ratio of counts per minute (cpm) measured in the n-octanol phase relative to the cpm measured in the PBS phase. The results were listed as mean±SD of the data obtained from 3-4 independent experiments, each performed with five replicates.

[2] = target: T1, albumin in mouse blood plasma (Mus musculus, UniProt P07724); assay: Albumin-bound fraction, ultrafiltration filter assay, mouse blood plasma; assay type: in vitro ADME; settings: 37° C., 30 min, percentage of total activity measured
T1 construct: tissue Rockland Immunochemicals, Inc., USA; host or cells: mouse blood plasma
T1 sequence (P07724 25-608): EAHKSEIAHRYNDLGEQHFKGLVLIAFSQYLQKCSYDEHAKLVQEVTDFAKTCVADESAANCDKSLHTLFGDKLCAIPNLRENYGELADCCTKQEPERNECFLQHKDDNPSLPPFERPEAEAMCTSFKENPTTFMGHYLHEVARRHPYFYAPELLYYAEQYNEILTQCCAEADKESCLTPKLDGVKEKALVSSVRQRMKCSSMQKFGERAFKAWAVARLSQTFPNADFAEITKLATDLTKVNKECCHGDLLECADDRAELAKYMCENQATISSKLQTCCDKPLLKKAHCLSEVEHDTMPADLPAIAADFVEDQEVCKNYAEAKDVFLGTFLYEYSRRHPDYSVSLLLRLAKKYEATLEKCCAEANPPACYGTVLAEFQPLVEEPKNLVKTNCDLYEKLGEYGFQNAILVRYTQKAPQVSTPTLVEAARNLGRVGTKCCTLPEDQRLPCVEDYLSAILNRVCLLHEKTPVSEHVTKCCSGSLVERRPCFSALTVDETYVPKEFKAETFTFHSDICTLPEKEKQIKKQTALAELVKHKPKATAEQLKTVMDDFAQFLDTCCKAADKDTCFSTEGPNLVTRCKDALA
Procedure: (§1) Albumin-binding properties were determined in mouse and human blood plasma. The albumin-binding properties of the folate radioconjugates of the disclosure in mouse blood plasma (Rockland Immunochemicals, Inc., USA) and human blood plasma (Stiftung Blutspende SRK Aargau-Solothurn, Switzerland) were determined using an ultrafiltration method (Deberle, L. M. et al., Molecules 2020, 25, (11)). The amount of serum albumin in mouse (MSA) and human (HSA) blood plasma was defined as 550 μM and 800 μM, respectively, based on measurements using a dry chemistry analyzer (DRI-CHEM 4000i, FUJIFILM, Japan). The folate radioconjugates of the disclosure (50 MBq/nmol, ca. 300 kBq, 0.006 nmol in 15 μL) were added to samples of mouse and human blood plasma (150 μL), followed by incubation of the samples at 37° C. for 30 min. The samples were loaded on Amicon centrifugal filters (cut-off of 10 kDa; Merck Millipore) followed by centrifugation (14,000 rcf, 30 min, 4° C.) to allow the separation of the plasma-bound from the plasma-unbound (free) fractions of each sample. […] The activity of the protein-bound fraction as well as the activity in the filtrate and in the filter unit were measured separately in a gamma-counter (Perkin Elmer, Wallac Wizard 1480). The percentage of radioconjugate bound to mouse and human albumin, respectively, was set in relation to the total activity measured (Table 4).

[3] = target: T2, albumin in human blood plasma (Homo sapiens, UniProt P02768); assay: Albumin-bound fraction, ultrafiltration filter assay, human blood plasma; assay type: in vitro ADME; settings: 37° C., 30 min, percentage of total activity measured
T2 construct: tissue Stiftung Blutspende SRK Aargau-Solothurn, Switzerland; host or cells: human blood plasma
T2 sequence (P02768 25-609): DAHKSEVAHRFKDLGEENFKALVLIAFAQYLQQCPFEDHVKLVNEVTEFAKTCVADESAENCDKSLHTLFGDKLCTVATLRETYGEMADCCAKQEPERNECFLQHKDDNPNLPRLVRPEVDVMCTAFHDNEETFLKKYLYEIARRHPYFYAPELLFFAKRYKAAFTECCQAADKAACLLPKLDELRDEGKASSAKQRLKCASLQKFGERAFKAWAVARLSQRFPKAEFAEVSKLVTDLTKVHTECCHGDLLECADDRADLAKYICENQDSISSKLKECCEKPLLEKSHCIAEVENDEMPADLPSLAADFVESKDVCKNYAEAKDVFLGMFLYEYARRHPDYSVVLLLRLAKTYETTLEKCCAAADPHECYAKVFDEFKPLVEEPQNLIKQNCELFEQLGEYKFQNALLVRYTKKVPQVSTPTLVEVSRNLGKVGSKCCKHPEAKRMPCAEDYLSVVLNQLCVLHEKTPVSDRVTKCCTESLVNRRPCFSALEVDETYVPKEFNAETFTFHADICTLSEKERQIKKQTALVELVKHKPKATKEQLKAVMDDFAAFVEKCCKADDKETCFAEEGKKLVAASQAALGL
Procedure: as §1

[4] = target: T3, mouse serum albumin (MSA) (Mus musculus, UniProt P07724); assay: Relative albumin-binding affinity (B50), mouse blood plasma; assay type: in vitro ADME; settings: inverse ratio of B50, normalized to [^177Lu]Lu-OxFol-1 (set as 1.0)
T3 construct: The amount of serum albumin in mouse (MSA) and human (HSA) blood plasma was defined as 550 μM and 800 μM; tissue Rockland Immunochemicals, Inc., USA; host or cells: mouse blood plasma
T3 sequence (P07724 25-608): as the sequence (P07724 25-608) above
Procedure: (§2) Relative albumin-binding affinity of the folate radioconjugates of the disclosure: The albumin-binding affinity of the folate radioconjugates of the disclosure was assessed and compared to that of [^177Lu]Lu-OxFol-1. A fixed amount of radioconjugate (50 MBq/nmol), ^˜300 kBq, 15 μL, 0.006 nmol) was added to a defined volume (150 μL) of mouse and human blood plasma and various dilutions thereof in PBS pH 7.4, resulting in defined mouse serum albumin (MSA)-to-folate radioconjugate or human serum albumin (HSA)-to-folate radioconjugate molar concentration ratios ranging from 0.01 to 12′500 and 0.01 to 20′000, respectively. The albumin-bound fraction was determined using an ultrafiltration device as described above.
(§3) The data were analyzed using a semi-logarithmic plot assuming a maximum binding of 100%. The Hill equation was fitted to the data points and the half-maximum binding (B50) was determined based on the obtained binding curves (GraphPad Prism software, version 8). The relative albumin-binding affinities were defined as the inverse ratio of the B50 value of each radioconjugate of the disclosure to the reference compound [^177Lu]Lu-OxFol-1 (set as 1.0). […] The results were presented as average±SD of 2-3 independent experiments (Table 5).

[5] = target: T4, human serum albumin (HSA) (Homo sapiens, UniProt P02768); assay: Relative albumin-binding affinity (B50), human blood plasma; assay type: in vitro ADME; settings: inverse ratio of B50, normalized to [^177Lu]Lu-OxFol-1 (set as 1.0)
T4 construct: tissue Stiftung Blutspende SRK Aargau-Solothurn, Switzerland; host or cells: human blood plasma
T4 sequence (P02768 25-609): as the sequence (P02768 25-609) above
Procedure: as §2, §3

FR = target: T5, FR (Homo sapiens, UniProt P15328); assay: FR-binding affinity (KD) on FR-positive IGROV-1 cells; settings: 1 h at 4° C., specific binding (excess folic acid block)
T5 construct: FR-positive IGROV-1 cells (human ovarian carcinoma cell line); endogenous in cells; host or cells: IGROV-1 human ovarian carcinoma cells
T5 sequence (P15328 25-234): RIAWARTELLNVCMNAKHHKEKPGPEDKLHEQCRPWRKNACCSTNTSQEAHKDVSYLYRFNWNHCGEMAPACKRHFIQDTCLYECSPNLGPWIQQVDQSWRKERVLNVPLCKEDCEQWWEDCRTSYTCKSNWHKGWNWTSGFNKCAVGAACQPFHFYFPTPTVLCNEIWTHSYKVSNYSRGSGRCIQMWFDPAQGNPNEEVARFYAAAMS
Procedure: The determination of the KD values was performed as previously reported (Deberle, L. M. et al; Bioconj Chem 2021, 32, p. 1617). FR-positive IGROV-1 cells (human ovarian carcinoma cell line, kindly provided by Dr. Gerrit Janssen, Free University Medical Center Amsterdam, The Netherlands) were seeded in 48-well plates (2.5×10^5 cells/well) in 500 μL FFRPMI medium with supplements. The cells were incubated at 37° C. and 5% CO2 to allow cell adhesion overnight. The experiment was performed on ice using ice-cold medium and buffer solutions. After removal of the supernatant, the cells were rinsed once with PBS prior to the addition of FFRPMI medium without supplements (450 μL/well). The respective folate radioconjugate of the disclosure (20 MBq/nmol) was added to each well at variable concentrations (in the range of 0.1 to 500 nM, 50 μL per well). […] The IGROV-1 tumor cells were incubated for 1 h at 4° C. on a shaker, followed by removal of the supernatants and rinsing the cells twice with PBS. After lysis of the cells with NaOH solution (1 M, aq., 500 μL), the samples were counted for activity in a γ-counter (Wallac Wizard 1480, Perkin Elmer). The counts per minute (cpm) of the specific binding (determined by subtracting the cpm of the unspecific binding from the cpm of total binding), were plotted against the molar concentration of the added folate radioconjugates of the disclosure. […]

Nc1nc2ncc(CNc3ccc(C(=O)N[C@@H](CCC(=O)N[C@@H](CCCCNC(=O)CN4CCN(CC(=O)O)CCN(CC(=O)O)CCN(CC(=O)O)CC4)C(=O)N[C@@H](CCCCNC(=O)CCCc4ccc(I)cc4)C(=O)O)C(=O)O)cc3)nc2c(=O)[nH]1 [[^177Lu]Lu-OxFol-1, metal not drawn]
logD Value [1]: −4.2 ± 0.2
Albumin-bound fraction, mouse blood plasma [2]: 90%
Albumin-bound fraction, human blood plasma [3]: 96%
Relative albumin-binding affinity, mouse plasma [4]: 1.00
Relative albumin-binding affinity, human plasma [5]: 1.00
Kd (FR): 2.8 nM
